Article PMC8812994

Biological target: rMjShoc2 (recombinant MjShoc2) (Marsupenaeus japonicus)
Test: ITC; MICROCAL PEAQ-ITC; rFlaA (2 mM) in the syringe, rMjShoc2 (0.2 mM) in the cell; 2 μl injections, 25°C; one set of sites model

For “rFlaA (recombinant FlaA of the ITC assay) (from UniProt Q60246 1-379) (natural protein)”, the Kd was 10 µM.
